T1: outer membrane usher FimD (Escherichia coli, UniProt P30130 46-878)
T1 sequence: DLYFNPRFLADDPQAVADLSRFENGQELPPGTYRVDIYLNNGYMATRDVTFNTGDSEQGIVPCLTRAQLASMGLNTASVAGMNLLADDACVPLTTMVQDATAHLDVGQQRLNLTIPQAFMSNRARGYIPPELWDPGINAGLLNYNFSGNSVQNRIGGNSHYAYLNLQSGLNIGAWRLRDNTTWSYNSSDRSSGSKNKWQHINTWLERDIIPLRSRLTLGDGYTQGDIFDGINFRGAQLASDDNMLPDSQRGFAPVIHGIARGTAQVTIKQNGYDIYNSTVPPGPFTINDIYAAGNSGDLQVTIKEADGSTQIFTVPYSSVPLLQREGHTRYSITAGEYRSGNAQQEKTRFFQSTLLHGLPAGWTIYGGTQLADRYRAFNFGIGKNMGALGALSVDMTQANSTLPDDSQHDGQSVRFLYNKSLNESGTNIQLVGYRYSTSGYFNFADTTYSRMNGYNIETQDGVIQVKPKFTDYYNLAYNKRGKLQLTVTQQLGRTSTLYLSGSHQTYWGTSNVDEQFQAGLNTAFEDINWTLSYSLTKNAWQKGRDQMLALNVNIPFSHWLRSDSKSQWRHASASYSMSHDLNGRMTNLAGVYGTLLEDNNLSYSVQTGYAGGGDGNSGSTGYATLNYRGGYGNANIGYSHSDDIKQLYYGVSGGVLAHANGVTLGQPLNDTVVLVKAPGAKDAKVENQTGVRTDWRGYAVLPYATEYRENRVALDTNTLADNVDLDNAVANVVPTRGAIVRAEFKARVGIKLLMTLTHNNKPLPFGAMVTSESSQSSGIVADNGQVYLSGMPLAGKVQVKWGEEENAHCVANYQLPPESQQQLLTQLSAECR


Target: T1, outer membrane usher FimD
Assay: cryo-EM structure

binding result | Binder
binds | pilus subunit FimG (natural protein) ADVTITVNGKVVAKPCTVSTTNATVDLGDLYSFSLMSAGAASAWHDVALELTNCPVGTSRVTASFSGAADSTGYYKNQGTAQNIQLELQDDSGNTLNTGATKTVQVDDSSQSAHFPLQVRALTVNGGATQGTIQAVISITYTYS
binds | FimC chaperone (natural protein) GVALGATRVIYPAGQKQEQLAVTNNDENSTYLIQSWVENADGVKDGRFIVTPPLFAMKGKKENTLRILDATNNQLPQDRESLFWMNVKAIPSMDKSKLTENTLQLAIISRIKLYYRPAKLALPPDQAAEKLRFRRSANSLTLINPTPYYLTVTELNAGTRVLENALVPPMGESTVKLPSDAGSNITYRTINDYGALTPKMTGVME

From publication PMC6309448 (Nature, 2018)
